One test deals with tested cell lines. The test can be described thus: Internalization of anti-ENDO180 antibodies into the tested cell lines (confocal microscopy). Format: cell-based. The settings on record: unconjugated Abs followed by secondary FITC goat anti mouse Ab. The method, then:
Internalization assays were performed in 24 well plates. 1×10^5 A549 or NRK-ENDO180 or NRK naive cells were seeded on cover slips in RPMI or DMEM medium respectively, supplemented with antibiotics, L-Glutamine and 10% fetal calf serum (Biological Industries, Beit Haemek, Israel).
For membrane staining, cells were stained with CellTracker™ DilC18 (5)-DS solution (Invitrogen, Carlsbad, Calif., USA), diluted 1:5000 with PBS. For cell membrane labeling, Concanavalin A, Alexa fluor 647 conjugate (10 μg/ml) (C21421, Invitrogen) was used. For nuclei staining, cells were stained with Hoechst (1:10,000 in PBS) (33258, Sigma). […] Subsequently, the cells were washed twice using cold PBS, fixated with 4% paraformaldehyde (PFA) and washed again with cold PBS. Membrane and nuclei staining were performed after fixation.
The cells were mounted using fluorescent mounting medium (Golden Bridge international, Mukilteo, Wash., USA) and fluorescence was measured using Andor Spinning disc confocal microscope and the Meta 510 Zeiss LSM confocal microscope. Laser beams at 405, 488, 561 and 650 nm were used for UV, Rhodamine, Concavaline A and CellTracker™, fluorophores excitation respectively. Serial optical sections of the cells were recorded for each treatment and the images were processed using Zeiss LSM Image browser software. […]

Test [1] concerns ENDO180 expressing cell lines. The test can be described thus: FACS binding capacity screening, all tested ENDO180 expressing cell lines. Format: cell-based. The method, then:
For binding analysis, 3.5×10^5 cells were trypsinized, spun down, re-suspended with FACS buffer (1% fetal bovine serum in 1×PBS), incubated for 30 minutes on ice with anti ENDO180 mAbs (1 μg) and washed with 1 ml FACS buffer. mAb samples were incubated with a secondary FITC conjugated goat anti mouse IgG antibody (115-095-072) (1:100, 150 μg/ml) in 50 μl of FACS buffer 30 minutes on ice, resuspended in 1 ml FACS buffer and analyzed using a FACS Calibur flow cytometer.
Cell lines which express different ENDO180 receptor levels were tested: NRK+ (a normal rat kidney), DU145^+ (a human prostate adenocarcinoma), LLC^+ (a mouse Lewis lung carcinoma), DU145^− and LLC^− (control cell lines, which are low expressors of ENDO180 receptor levels, i.e. express the PIRES Puro empty plasmid), A549 (human lung carcinoma) and CT26 (mouse colon carcinoma). NRK+, DU145^+ and LLC^+ stably express ENDO180 receptor levels. A549 and CT26 express naturally unknown levels of ENDO180 receptor. The binding capacity of the above cell lines was compared using 4 different Abs: mAb 8D8 clone, mAb10C12 clone, minibody (MB) and anti-wnt minibody (negative control).
A new batch was tested and the secondary Ab was changed (FITC conjugated goat anti mouse IgG F(ab)2 fragment, 115-095-072, Jackson Immunoresearch). The new MB batch was labeled directly with protein labeling kit.
(In general: In flow cytometry, cells or beads pass a laser one at a time.)

B1: MB: anti-ENDO180 scFv clone G7V, SEQ ID NO:6, also known as minibody (protein)
scFv: MKYLLPTAAAGLLLLAASGAHAQVQLVQSGGGLVKPGGSLRLSCAASGFTFSSYSMNWVRQAPGKGLEWVANIKPDGSERHSVDSVKGRFTISRDNSKNSLYLQMNSLRAEDTAVYYCARPGAGRLDYWGQGTLVTVSSGGGGSGGGGSGGGGSNFMLTQDAAVSVALGQTVRITCQGDSLRSYYASWYQQKPGQAPVLVVYGKNNRPSGIPDRFSGSSSGNTASLTITGAQAEDEADYYCNSRDSSGNPWAFGGGTKVTVLASGKPIPNPLLGLDSTHHHHHH
modifications: Polypeptide encoded by SEQ ID NO:5
Turning to B1, the internalization result in the test on tested cell lines is listed as “no internalization”. Also, the binding capacity entry is “weak binding capacity” in test [1] (all of the tested cell lines, first batch, secondary FITC Ab) and “No significant improvement in binding capacity” in test [1] (new batch, labeled directly with protein labeling kit, FIGS. 4A-D).
